In patent publication US20100260668A1 (published 2010):

B1: DVD492 (bispecific antibody, human IgG1, kappa)
heavy: not shown
light: DIQMTQSPSSLSASVGDRVTITCRASQVIRRSLAWYQQKPGKAPKLLIYAASNLASGVPSRFSGSGSGTDFTLTISSLQPEDFATYYCQQSNTSPLTFGQGTKVEIKRTVAAPDIQMTQSSSYLSVSLGGRVTITCKASDHINNWLAWYQQKPGNAPRLLISGATSLETGVPSRFSGSGSGKDYTLSITSLQTEDVATYYCQQYWSIPLTFGAGTKLELKRTVAAPSVFIFPPSDEQLKSGTASVVCLLNNFYPREAKVQWKVDNALQSGNSQESVTEQDSKDSTYSLSSTLTLSKADYEKHKVYACEVTHQGLSSPVTKSFNRGEC
notes: DVD-Ig; N-term; VD AB071 (VEGF), C-term; VD AB072 (DLL4); HC linker short, LC linker short; also called DVD492H; DVD492L
B2: DVD504 (bispecific antibody, human IgG1, kappa)
heavy: not shown
light: DIQMTQSPSSLSASVGDRVTITCRASQVIRRSLAWYQQKPGKAPKLLIYAASNLASGVPSRFSGSGSGTDFTLTISSLQPEDFATYYCQQSNTSPLTFGQGTKVEIKRTVAAPDIQMTQSSSYLSVSLGGRVTITCKASDHINNWLAWYQQKPGNAPRLLISGATSLETGVPSRFSGSGSGKDYTLSITSLQTEDVATYYCQQYWSIPLTFGAGTKLELKRTVAAPSVFIFPPSDEQLKSGTASVVCLLNNFYPREAKVQWKVDNALQSGNSQESVTEQDSKDSTYSLSSTLTLSKADYEKHKVYACEVTHQGLSSPVTKSFNRGEC
notes: DVD-Ig; N-term; VD AB071 (VEGF), C-term; VD AB072 (DLL4); HC linker long, LC linker short; also called DVD504H; DVD504L
B3: DVD480 (bispecific antibody, human IgG1, kappa)
heavy: not shown
light: DIQMTQSPSSLSASVGDRVTITCRASQVIRRSLAWYQQKPGKAPKLLIYAASNLASGVPSRFSGSGSGTDFTLTISSLQPEDFATYYCQQSNTSPLTFGQGTKVEIKRTVAAPDIQMTQSPSSLSASVGDRVTITCRASQDVSTAVAWYQQKPGKAPKLLIYSASFLYSGVPSRFSGSGSGTDFTLTISSLQPEDFATTYYCQQSYTGTVTFGQGTKVEIKRTVAAPSVFIFPPSDEQLKSGTASVVCLLNNFYPREAKVQWKVDNALQSGNSQESVTEQDSKDSTYSLSSTLTLSKADYEKHKVYACEVTHQGLSSPVTKSFNRGEC
notes: DVD-Ig; N-term; VD AB071 (VEGF), C-term; VD AB015 (DLL4); HC linker long, LC linker short; also called DVD480H; DVD480L
B4: DVD446 (bispecific antibody, human IgG1, kappa)
heavy: not shown
light: DIQMTQSPSSLSASVGDRVTITCRASQVIRRSLAWYQQKPGKAPKLLIYAASNLASGVPSRFSGSGSGTDFTLTISSLQPEDFATYYCQQSNTSPLTFGQGTKVEIKRTVAAPDIVMTQSPDSLAVSLGERATISCRASESVDNYGISFMKWFQQKPGQPPKLLIYAASNQGSGVPDRFSGSGSGTDFTLTISSLQAEDVAVYYCQQSKEVPWTFGGGTKVEIKRTVAAPSVFIFPPSDEQLKSGTASVVCLLNNFYPREAKVQWKVDNALQSGNSQESVTEQDSKDSTYSLSSTLTLSKADYEKHKVYACEVTHQGLSSPVTKSFNRGEC
notes: DVD-Ig; N-term; VD AB071 (VEGF), C-term; VD AB069 (DLL4); HC linker short, LC linker short; also called DVD446H; DVD446L
B5: DVD458 (bispecific antibody, human IgG1, kappa, L234A L235A)
heavy: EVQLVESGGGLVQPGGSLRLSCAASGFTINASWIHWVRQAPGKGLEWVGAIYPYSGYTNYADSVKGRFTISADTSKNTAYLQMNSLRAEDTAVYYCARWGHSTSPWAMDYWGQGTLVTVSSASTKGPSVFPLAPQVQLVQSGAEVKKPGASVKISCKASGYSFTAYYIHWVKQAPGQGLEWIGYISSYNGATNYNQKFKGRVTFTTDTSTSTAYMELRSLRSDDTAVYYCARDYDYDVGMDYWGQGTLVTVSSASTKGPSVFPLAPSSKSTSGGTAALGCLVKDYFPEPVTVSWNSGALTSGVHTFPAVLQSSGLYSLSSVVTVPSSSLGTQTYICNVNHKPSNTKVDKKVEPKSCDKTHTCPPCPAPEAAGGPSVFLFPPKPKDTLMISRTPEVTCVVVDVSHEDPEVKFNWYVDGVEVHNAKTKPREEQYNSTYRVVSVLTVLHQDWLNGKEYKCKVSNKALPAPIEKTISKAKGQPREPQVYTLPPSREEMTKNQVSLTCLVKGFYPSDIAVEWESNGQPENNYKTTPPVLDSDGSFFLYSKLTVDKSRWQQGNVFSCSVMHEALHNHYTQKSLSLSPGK
light: DIQMTQSPSSLSASVGDRVTITCRASQVIRRSLAWYQQKPGKAPKLLIYAASNLASGVPSRFSGSGSGTDFTLTISSLQPEDFATYYCQQSNTSPLTFGQGTKVEIKRTVAAPDIVMTQSPDSLAVSLGERATISCRASESVDNYGISFMKWFQQKPGQPPKLLIYAASNQGSGVPDRFSGSGSGTDFTLTISSLQAEDVAVYYCQQSKEVPWTFGGGTKVEIKRTVAAPSVFIFPPSDEQLKSGTASVVCLLNNFYPREAKVQWKVDNALQSGNSQESVTEQDSKDSTYSLSSTLTLSKADYEKHKVYACEVTHQGLSSPVTKSFNRGEC
notes: DVD-Ig; N-term; VD AB071 (VEGF), C-term; VD AB069 (DLL4); HC linker long, LC linker short; also called DVD458H; DVD458L
B6: DVD498 (bispecific antibody, human IgG1, kappa)
heavy: not shown
light: DIQMTQSPSSLSASVGDRVTITCRASQVIRRSLAWYQQKPGKAPKLLIYAASNLASGVPSRFSGSGSGTDFTLTISSLQPEDFATYYCQQSNTSPLTFGQGTKVEIKRTVAAPSVFIFPPDIQMTQSSSYLSVSLGGRVTITCKASDHINNWLAWYQQKPGNAPRLLISGATSLETGVPSRFSGSGSGKDYTLSITSLQTEDVATYYCQQYWSIPLTFGAGTKLELKRTVAAPSVFIFPPSDEQLKSGTASVVCLLNNFYPREAKVQWKVDNALQSGNSQESVTEQDSKDSTYSLSSTLTLSKADYEKHKVYACEVTHQGLSSPVTKSFNRGEC
notes: DVD-Ig; N-term; VD AB071 (VEGF), C-term; VD AB072 (DLL4); HC linker long, LC linker long; also called DVD498H; DVD498L
B7: DVD510 (bispecific antibody, human IgG1, kappa)
heavy: not shown
light: DIQMTQSPSSLSASVGDRVTITCRASQVIRRSLAWYQQKPGKAPKLLIYAASNLASGVPSRFSGSGSGTDFTLTISSLQPEDFATYYCQQSNTSPLTFGQGTKVEIKRTVAAPSVFIFPPDIQMTQSSSYLSVSLGGRVTITCKASDHINNWLAWYQQKPGNAPRLLISGATSLETGVPSRFSGSGSGKDYTLSITSLQTEDVATYYCQQYWSIPLTFGAGTKLELKRTVAAPSVFIFPPSDEQLKSGTASVVCLLNNFYPREAKVQWKVDNALQSGNSQESVTEQDSKDSTYSLSSTLTLSKADYEKHKVYACEVTHQGLSSPVTKSFNRGEC
notes: DVD-Ig; N-term; VD AB071 (VEGF), C-term; VD AB072 (DLL4); HC linker short, LC linker long; also called DVD510H; DVD510L

Target: T1, VEGF (UniProt P15692-4 27-191)
T1 construct: Bought reagent; also called vascular endothelial growth factor
T1 sequence (P15692 other isoform, or with tags, fused parts or gaps limits assumed): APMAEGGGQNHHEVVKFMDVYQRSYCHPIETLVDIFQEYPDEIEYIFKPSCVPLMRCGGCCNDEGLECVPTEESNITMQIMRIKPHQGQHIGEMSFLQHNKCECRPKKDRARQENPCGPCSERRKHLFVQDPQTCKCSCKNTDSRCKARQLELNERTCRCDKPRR
Experiment: SPR (Biacore), DVD-Ig captured, VEGF in solution

Binder	Kd [pM]	koff [s⁻¹]	kon [M⁻¹ s⁻¹]
B1	49.9	7.6e-06	152000
B2	0.941	1.52e-07	162000
B3	302	4.91e-05	162000
B4	0.297	3.62e-08	122000
B5	0.281	3.39e-08	121000
B6	176	2.85e-05	162000
B7	73.3	1.2e-05	164000
